Laboratory results from patent US20260035426A1.

How the values were obtained:
CM4 = molecular target: T1, CM4; assay: cell-based or functional assay
T1 sequence (peptide): MVVLALTASG

CM1 = molecular target: T2, CM1; assay: cell-based or functional assay
T2 sequence (peptide): MVPSALTASG

Chain of recombinant human MMP2 (P08253 110-660 limits assumed): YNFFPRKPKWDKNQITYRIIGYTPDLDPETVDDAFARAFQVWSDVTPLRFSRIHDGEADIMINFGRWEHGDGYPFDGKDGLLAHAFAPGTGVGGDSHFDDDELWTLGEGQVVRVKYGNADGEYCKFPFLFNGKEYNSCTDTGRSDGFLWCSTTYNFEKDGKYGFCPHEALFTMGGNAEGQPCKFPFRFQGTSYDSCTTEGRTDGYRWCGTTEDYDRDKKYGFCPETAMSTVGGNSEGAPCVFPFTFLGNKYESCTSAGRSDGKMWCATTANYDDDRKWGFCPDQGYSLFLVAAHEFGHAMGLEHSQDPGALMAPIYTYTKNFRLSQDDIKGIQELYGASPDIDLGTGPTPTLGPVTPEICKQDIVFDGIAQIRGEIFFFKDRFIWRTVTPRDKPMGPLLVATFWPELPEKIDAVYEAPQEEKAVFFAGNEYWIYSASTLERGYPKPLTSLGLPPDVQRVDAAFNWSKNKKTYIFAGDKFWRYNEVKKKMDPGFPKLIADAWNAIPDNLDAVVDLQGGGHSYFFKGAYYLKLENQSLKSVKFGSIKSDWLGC

| Substance | Cleavage efficiency (EC50) (CM4) [µg/mL] | Cleavage efficiency (EC50) (CM1) [µg/mL] |
| --- | --- | --- |
| recombinant human MMP9 (from UniProt P14780 107-707) (enzyme) | 0.2 | 0.05 |
| recombinant human MMP2 (from UniProt P08253 110-660) (enzyme) | 0.15 | 0.006 |
